The record followed here is patent US6573045, “Methods and kits for discovery of RNA-binding compounds” (Ribotargets, Ltd.).

Series [1] addresses T1, Rev peptide (Human immunodeficiency virus 1). The series is described as follows: FRET quenching; TAMRA-Rev and DABCYL-TAR; 50 mM Tris pH 8, 50 mM KCl, room temp. The following applies: protein: synthetic; tags: chemically synthesised peptide; N-terminal TAMRA; label: 3'-DABCYL or 5'-Cy3; hairpin with bulge.
The target of series [2] is T1, Rev peptide. Briefly: FRET quenching; ±23; TAMRA-Rev and DABCYL-RRE; 50 mM Tris pH 8, 50 mM KCl, room temp. The following applies: protein: synthetic; tags: chemically synthesised peptide; N-terminal TAMRA; label: 3'-DABCYL or 5'-FAM; hairpin.

What is called Kd is the concentration at which binding is half-saturated. A high value points to weaker binding.

CCCAGAUCUGAGCCUGGGAGCUCUCUGGG (ssRNA) [TAR RNA 29-mer] displayed a Kd in series [1] of 11 µM.
With CGUGUGGGCGCAGCGUCAAUGACGCUGCGGUACACACG (ssRNA) [RRE RNA], the dissociation constant (Kd) in series [2] was determined as 0.137 µM.
